In PMC10287930, “RecF protein targeting to post-replication (daughter strand) gaps II: RecF interaction with replisomes” (Nucleic Acids Research, 2023):

B1: RecF (Gal4 fusion for yeast two-hybrid) (natural protein, E. coli, UniProt P0A7H0 1-357, looked up)
chain: MSLTRLLIRDFRNIETADLALSPGFNFLVGANGSGKTSVLEAIYTLGHGRAFRSLQIGRVIRHEQEAFVLHGRLQGEERETAIGLTKDKQGDSKVRIDGTDGHKVAELAHLMPMQLITPEGFTLLNGGPKYRRAFLDWGCFHNEPGFFTAWSNLKRLLKQRNAALRQVTRYEQLRPWDKELIPLAEQISTWRAEYSAGIAADMADTCKQFLPEFSLTFSFQRGWEKETEYAEVLERNFERDRQLTYTAHGPHKADLRIRADGAPVEDTLSRGQLKLLMCALRLAQGEFLTRESGRRCLYLIDDFASELDDERRGLLASRLKATQSQVFVSAISAEHVIDMSDENSKMFTVEKGKITD
notes: RecF, E. coli; open reading frame (start to stop codons) of recF cloned in frame into pGAD-C3 and pGBD-C3; Stood as AD fusion and as BD fusion in turn; one molecule for both; source: yeast two-hybrid fusion (yeast CFy7; pEAW1241 pGAD-RecF, pEAW1242 pGBD-RecF)
B2: RecR (Gal4 fusion for yeast two-hybrid) (natural protein, E. coli, UniProt P0A7H6 1-201, looked up)
chain: MQTSPLLTQLMEALRCLPGVGPKSAQRMAFTLLQRDRSGGMRLAQALTRAMSEIGHCADCRTFTEQEVCNICSNPRRQENGQICVVESPADIYAIEQTGQFSGRYFVLMGHLSPLDGIGPDDIGLDRLEQRLAEEKITEVILATNPTVEGEATANYIAELCAQYDVEASRIAHGVPVGGELEMVDGTTLSHSLAGRHKIRF
notes: RecR, E. coli; open reading frame (start to stop codons) of recR; Stood as AD fusion and as BD fusion in turn; also called pGAD-RecR; pGBD-RecR; source: yeast two-hybrid fusion (yeast CFy7; pEAW1247 pGAD-RecR, pEAW1248 pGBD-RecR)

How the values were obtained:
Experiment in all cases: two-hybrid; yeast CFy7; RecF fused to Gal4 AD (pGAD-C3) or BD (pGBD-C3) and the partner to the other domain; β-galactosidase activity of freeze/thaw-broken cells in Z buffer; 4 or 5 biological replicates; negative controls (empty C3) 0.21 (AD_RecF) and 0.27 units (BD_RecF)
[1] = target: B2; conditions: partners not purified
[2] = target: the molecule itself
[3] = target: T1, DnaN β-clamp (Gal4 fusion for yeast two-hybrid) (E. coli, UniProt P0A988 1-366); conditions: partners not purified
T1 construct: DnaN (β-clamp of DNA polymerase III), E. coli; open reading frame (start to stop codons) of dnaN; also called pGBD-DnaN; source: yeast two-hybrid fusion (yeast CFy7; pEAW1101 pGAD-DnaN, pEAW1104 pGBD-DnaN)
T1 sequence (P0A988 whole entry, the tested form may be a part): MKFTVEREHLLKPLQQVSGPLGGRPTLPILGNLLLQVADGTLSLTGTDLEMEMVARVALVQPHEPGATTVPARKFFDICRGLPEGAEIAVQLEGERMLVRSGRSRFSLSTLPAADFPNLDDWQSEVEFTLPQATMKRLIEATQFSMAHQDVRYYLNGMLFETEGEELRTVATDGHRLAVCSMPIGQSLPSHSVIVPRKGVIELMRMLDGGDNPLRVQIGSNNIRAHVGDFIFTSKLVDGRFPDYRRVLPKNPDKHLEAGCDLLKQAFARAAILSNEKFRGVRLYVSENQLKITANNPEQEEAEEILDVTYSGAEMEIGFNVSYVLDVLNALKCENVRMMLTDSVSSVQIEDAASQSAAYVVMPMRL

[4] = target: B1; conditions: partners not purified

Binder	β-galactosidase activity [4]	also measured
B1	–	β-galactosidase activity [1]: 1.14 units; β-galactosidase activity [2]: 0.655 units; β-galactosidase activity [3]: 1.05 units
TopB (Gal4 fusion for yeast two-hybrid) (natural protein, E. coli, UniProt P14294 1-653, looked up, TopB (DNA topoisomerase III), E. coli; open reading frame (start to stop codons) of topB; also called pGAD-TopB; pGBD-TopB; source: yeast two-hybrid fusion (yeast CFy7; pEAW1251 pGAD-TopB, pEAW1252 pGBD-TopB)) MRLFIAEKPSLARAIADVLPKPHRKGDGFIECGNGQVVTWCIGHLLEQAQPDAYDSRYARWNLADLPIVPEKWQLQPRPSVTKQLNVIKRFLHEASEIVHAGDPDREGQLLVDEVLDYLQLAPEKRQQVQRCLINDLNPQAVERAIDRLRSNSEFVPLCVSALARARADWLYGINMTRAYTILGRNAGYQGVLSVGRVQTPVLGLVVRRDEEIENFVAKDFFEVKAHIVTPADERFTAIWQPSEACEPYQDEEGRLLHRPLAEHVVNRISGQPAIVTSYNDKRESESAPLPFSLSALQIEAAKRFGLSAQNVLDICQKLYETHKLITYPRSDCRYLPEEHFAGRHAVMNAISVHAPDLLPQPVVDPDIRNRCWDDKKVDAHHAIIPTARSSAINLTENEAKVYNLIARQYLMQFCPDAVFRKCVIELDIAKGKFVAKARFLAEAGWRTLLGSKERDEENDGTPLPVVAKGDELLCEKGEVVERQTQPPRHFTDATLLSAMTGIARFVQDKDLKKILRATDGLGTEATRAGIIELLFKRGFLTKKGRYIHSTDAGKALFHSLPEMATRPDMTAHWESVLTQISEKQCRYQDFMQPLVGTLYQLIDQAKRTPVRQFRGIVAPGSGGSADKKKAAPRKRSAKKSPPADEVGSGAIA	~0.5 units	–
B2	1.63 units	–
RadD (Gal4 fusion for yeast two-hybrid) (natural protein, E. coli, UniProt P33919 1-586, looked up, RadD (YejH), E. coli; also called YejH; pGAD-YejH; source: yeast two-hybrid fusion (yeast CFy7)) MIFTLRPYQQEAVDATLNHFRRHKTPAVIVLPTGAGKSLVIAELARLARGRVLVLAHVKELVAQNHAKYQALGLEADIFAAGLKRKESHGKVVFGSVQSVARNLDAFQGEFSLLIVDECHRIGDDEESQYQQILTHLTKVNPHLRLLGLTATPFRLGKGWIYQFHYHGMVRGDEKALFRDCIYELPLRYMIKHGYLTPPERLDMPVVQYDFSRLQAQSNGLFSEADLNRELKKQQRITPHIISQIMEFAATRKGVMIFAATVEHAKEIVGLLPAEDAALITGDTPGAERDVLIENFKAQRFRYLVNVAVLTTGFDAPHVDLIAILRPTESVSLYQQIVGRGLRLAPGKTDCLILDYAGNPHDLYAPEVGTPKGKSDNVPVQVFCPACGFANTFWGKTTADGTLIEHFGRRCQGWFEDDDGHREQCDFRFRFKNCPQCNAENDIAARRCRECDTVLVDPDDMLKAALRLKDALVLRCSGMSLQHGHDEKGEWLKITYYDEDGADVSERFRLQTPAQRTAFEQLFIRPHTRTPGIPLRWITAADILAQQALLRHPDFVVARMKGQYWQVREKVFDYEGRFRLAHELRG	~0.5 units	–
RecQ (Gal4 fusion for yeast two-hybrid) (natural protein, RecQ helicase, E. coli; open reading frame (start to stop codons) of recQ; also called pGAD-RecQ; pGBD-RecQ; source: yeast two-hybrid fusion (yeast CFy7; pEAW1100 pGAD-RecQ, pEAW1105 pGBD-RecQ)) not shown	~0.5 units	–
RecO (Gal4 fusion for yeast two-hybrid) (natural protein, E. coli, UniProt P0A7H3 1-242, looked up, RecO, E. coli; open reading frame (start to stop codons) of recO; also called pGAD-RecO; pGBD-RecO; source: yeast two-hybrid fusion (yeast CFy7; pEAW1258 pGAD-RecO, pEAW1259 pGBD-RecO)) MEGWQRAFVLHSRPWSETSLMLDVFTEESGRVRLVAKGARSKRSTLKGALQPFTPLLLRFGGRGEVKTLRSAEAVSLALPLSGITLYSGLYINELLSRVLEYETRFSELFFDYLHCIQSLAGVTGTPEPALRRFELALLGHLGYGVNFTHCAGSGEPVDDTMTYRYREEKGFIASVVIDNKTFTGRQLKALNAREFPDADTLRAAKRFTRMALKPYLGGKPLKSRELFRQFMPKRTVKTHYE	~0.5 units	–
